# Test results reported in the supplement of paper PMC10567573.
# ± gives the standard deviation.
# Assay: protein stability index of a GFP-peptide fusion (GPS, HEK-293T) (PSI 1-6); higher = more stable
# [1] = treatment: DMSO, c terminus: native
# [2] = treatment: MLN4924 1 uM, 8 h, c terminus: native
# [3] = treatment: DMSO, c terminus: a fixed tail appended
# [4] = treatment: MLN4924 1 uM, 8 h, c terminus: a fixed tail appended
# 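Further: 24-mer peptide tiles fused after GFP, lentivirally expressed, FACS-sorted into six equal bins by GFP/DsRed ratio, decoded by Illumina sequencing, PSI is the read-weighted mean bin number.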
Sequence,protein stability index [1],protein stability index [2],protein stability index [3],protein stability index [4]
NLPSGGKGFKLRRQPSEPKRSCC [RAB22A],3.89 ± 0.34,4 ± 0.35,–,–
ISNGDFESYTKMCDPGMTAFEPEA [CAMK2A],–,–,4.48 ± 0.18,4.66 ± 0.25
LMCGGIAFWSLVTLGSSFIPGEHF [SPNS1],–,–,3.21 ± 0.64,3.18 ± 0.21
IVGWRCRVGQWVRMENVTVLGEDV [GMPPB],–,–,2.39 ± 0.61,2.15 ± 0.18
GNLGSLEKSVTKDAEGLAARDVQK [INTS4],–,–,5.46 ± 0.089,5.42 ± 0.12
ALRSHLKSFSMANGLNARMMHGGS [RAB40B],–,–,2.71 ± 0.38,2.5 ± 0.62
EQATSLAILRVIRLVRVFRIFKLS [KCNA1],–,–,2.42 ± 0.63,2.7 ± 0.26
KVLGELNILPNTQKVTCFYQPAPY [TENT5D],–,–,2.5 ± 0.23,2.16 ± 0.3
ERMAEEGGGGQGDGGSSLASGSTQ [FBXO28],–,–,5.53 ± 0.35,5.35 ± 0.33
KVWSLTGQVAEDRFPESHLPIQTP [TLE6],–,–,3.58 ± 0.21,3.47 ± 0.39
NESSLASTLKTLLFFTALMITVPI [VMA21],–,–,2.92 ± 0.19,3.07 ± 0.2
EDSVSRLEKEIEVLERGDSAPATA [PALM],–,–,5.49 ± 0.23,5.47 ± 0.18
ELHQVAERVEALGQFVMKTRRTLK [GNB5],–,–,2.87 ± 0.12,3.1 ± 0.3
CQSVLEDFNLCLFYLPSSPNLSLA [SMG5],–,–,2.5 ± 0.65,2.72 ± 0.63
MDEAVGDLKQALPCVAESPTVHVE [TRIP13],–,–,5.18 ± 0.13,5.01 ± 0.19
KNSTMVNSEDIFLLLCLKVDNHFN [TRIM43],–,–,2.98 ± 0.57,2.84 ± 0.51
NSEADQLGKIFDLIGLPPEDDWPR [CDK4],–,–,3.7 ± 0.35,3.92 ± 0.23
FQTLQAIVSHFQKLFDVPSLNGVY [CEP70],–,–,2.36 ± 0.36,2.36 ± 0.4
TGLELIAEESNPPLQDFPNSISSD [MIA2],–,–,5.2 ± 0.097,5.33 ± 0.25
DKDENKLSEASGGRAENGERSDLE [ZC3H15],–,–,5.45 ± 0.24,5.45 ± 0.28
FHNLVSLNLNYNCISDELLENLCE [FBXO39],–,–,2.6 ± 0.18,2.66 ± 0.3
STMTSSVQIYNLSQNIQEDDLQQL [ATL3],–,–,4.45 ± 0.13,4.57 ± 0.31

Sequence,protein stability index [1],protein stability index [2],protein stability index [3],protein stability index [4]
SSHEPCSATCTTGVMSAYAMCVRY [ADAMTSL2],–,–,2.24 ± 0.3,2.32 ± 0.19
ACRRRDALTGHLRTHSVIKEETNH [IKZF1],–,–,4.01 ± 0.76,3.76 ± 0.89
PKARKQGVSPADMYRWKLSSHEPC [ADAMTSL2],–,–,2.94 ± 0.27,3.25 ± 0.14
LSEIFPGGIRGRAMALTSSMNWGI [SLC2A12],–,–,1.91 ± 0.4,2.2 ± 0.097
MESLISAPLVKTLEKEEEKDLVMY [CDC25B],–,–,4.56 ± 0.062,4.61 ± 0.24
MATPDAGLPGAEGVEPAPWAQLEA [FANCE],–,–,4.86 ± 0.32,4.96 ± 0.27
DKKVRTIIIRSEVPGIFCAGADLK [AUH],–,–,2.12 ± 0.27,2.11 ± 0.38
DEGFIKEEERPLPEKEYQRQVWLL [KCNA1],–,–,3.8 ± 0.28,3.73 ± 0.24
EEKSVKNTSIRVADFGSATFDHEH [CLK3],–,–,5.1 ± 0.11,5.07 ± 0.21
ELGSESQGASESQAPGEENLLGEA [HDAC6],–,–,5.63 ± 0.29,5.54 ± 0.12
PQTVGVGRARFTTYEVRMRTNLPI [SNX12],–,–,2.61 ± 0.22,2.6 ± 0.34
GALQIEQSEESDQGKYECVATNSA [PTPRD],–,–,5.18 ± 0.097,5.39 ± 0.31
SFCLEDTECEGDIQKNYECANFGD [LOXL2],–,–,5.14 ± 0.14,5.33 ± 0.2
DQDDRRTWDGRPLTMAATFDDCLY [GFOD1],–,–,3.74 ± 0.34,3.99 ± 0.22
TDDRIVVPQRGRSTRVPVASVLI [SPNS1],2.64 ± 0.13,2.82 ± 0.42,–,–
LTEDYFPSVPDNAELVLLTLGQAW [DFFB],–,–,2.34 ± 0.23,2.34 ± 0.22
PSRQYATLDVYNPFETREPPPAYE [SCAMP3],–,–,3.95 ± 0.27,4.14 ± 0.21
EKLCIYTDNSIKPQELLEWELVVL [CCND2],–,–,2.57 ± 0.58,2.62 ± 0.6
EAFTLMDQNRDGFIDKEDLKDTYA [MYL5],–,–,4.69 ± 0.25,4.88 ± 0.11
YLKNLPLLSKYCGYREDNIPQLED [TPH1],–,–,2.57 ± 0.09,2.77 ± 0.2
RGVRRTASTPTPDDKLFQKLAKVY [CPN1],–,–,2.61 ± 0.29,2.86 ± 0.27
RMSEDKPQDYKKRLSVELTSSLFR [CTNNB1],–,–,3.4 ± 0.1,3.42 ± 0.25
